Target: BiP (binding immunoglobulin protein), ER-resident chaperone (human (endogenous in H1299), UniProt P11021 19-654)
Assay: proximity ligation

Chain of BiP (binding immunoglobulin protein), ER-resident chaperone (P11021 19-654): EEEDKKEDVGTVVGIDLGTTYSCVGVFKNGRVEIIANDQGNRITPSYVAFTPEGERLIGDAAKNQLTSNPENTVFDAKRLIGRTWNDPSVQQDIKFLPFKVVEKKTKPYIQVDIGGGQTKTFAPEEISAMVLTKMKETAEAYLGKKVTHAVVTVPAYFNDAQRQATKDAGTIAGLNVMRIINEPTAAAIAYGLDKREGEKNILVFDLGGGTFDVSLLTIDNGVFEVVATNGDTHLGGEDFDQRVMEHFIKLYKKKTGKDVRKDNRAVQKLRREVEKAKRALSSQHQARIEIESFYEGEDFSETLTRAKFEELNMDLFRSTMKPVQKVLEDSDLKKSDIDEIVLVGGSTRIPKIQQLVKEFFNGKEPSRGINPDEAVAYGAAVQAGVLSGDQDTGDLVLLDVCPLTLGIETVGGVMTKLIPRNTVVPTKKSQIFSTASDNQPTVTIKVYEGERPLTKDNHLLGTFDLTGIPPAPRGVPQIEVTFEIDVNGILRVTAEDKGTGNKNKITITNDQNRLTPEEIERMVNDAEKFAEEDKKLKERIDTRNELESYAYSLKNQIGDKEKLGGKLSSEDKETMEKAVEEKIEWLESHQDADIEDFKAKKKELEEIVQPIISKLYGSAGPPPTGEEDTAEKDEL

B1: BIK, BH3-only pro-apoptotic member of the BCL-2 family (natural protein, human (endogenous in H1299), UniProt Q13323 1-160, looked up)
chain: MSEVRPLSRDILMETLLYEQLLEPPTMEVLGMTDSEEDLDPMEDFDSLECMEGSDALALRLACIGDEMDVSLRAPRLAQLSEVAMHSLGLAFIYDQTEDIRDVLRSFMDGFTTLKENIMRFWRSPNPGSWVSCEQVLLALLLLLALLLPLLSGGLHLLLK
**Q.** What does the source list for B1?
**A.** ratio of PLA BIK/BiP complexes in p53-positive/p53-negative cells, DMSO: 1.3 ratio; ratio of PLA BIK/BiP complexes in p53-positive/p53-negative cells, thapsigargin: 0.4 ratio
